Assay results reported in article PMC3478282, “Probing the Putative Active Site of YjdL: An Unusual Proton-Coupled Oligopeptide Transporter from E. coli” (PLoS ONE, 2012).

How the values were obtained:
[1] = molecular target: YjdL from E. coli, wild type (E. coli) (UniProt P39276)
YjdL-Asp392Ser (E. coli) = YjdL-Asp392Ser (E. coli) (UniProt P39276)
YjdL Tyr113Phe (E. coli) = YjdL Tyr113Phe (E. coli) (UniProt P39276)
[2] = molecular target: YjdL from E. coli, wild type (E. coli) (UniProt P39276); remark: listed apart in the source
YjdL-Trp278Phe (E. coli) = YjdL-Trp278Phe (E. coli) (UniProt P39276)
YjdL Tyr25Phe (E. coli) = YjdL Tyr25Phe (E. coli) (UniProt P39276)
YjdL Tyr58Phe (E. coli) = YjdL Tyr58Phe (E. coli) (UniProt P39276)
YjdL-Ala281Phe (E. coli) = YjdL-Ala281Phe (E. coli) (UniProt P39276)
YjdL Tyr21Phe (E. coli) = YjdL Tyr21Phe (E. coli) (UniProt P39276)

β-Ala-Lys(AMCA) uptake (0.5 mM) left with 50 mM competitor, E. coli cells, pH 6.5 [1] [%] | β-Ala-Lys(AMCA) uptake (0.5 mM) left with 50 mM competitor, E. coli cells, pH 6.5 (YjdL-Asp392Ser (E. coli)) [%] | IC50 of inhibition of β-Ala-Lys(AMCA) uptake into E. coli cells (0.2 mM substrate, 5 min, pH 6.5) (YjdL Tyr113Phe (E. coli)) [mM] | IC50 of inhibition of β-Ala-Lys(AMCA) uptake into E. coli cells (0.2 mM substrate, 5 min, pH 6.5) [2] [mM] | IC50 of inhibition of β-Ala-Lys(AMCA) uptake into E. coli cells (0.5 mM substrate, 15 min, pH 6.5) [2] [mM] | IC50 of inhibition of β-Ala-Lys(AMCA) uptake into E. coli cells (0.2 mM substrate, 5 min, pH 6.5) (YjdL-Trp278Phe (E. coli)) [mM] | IC50 of inhibition of β-Ala-Lys(AMCA) uptake into E. coli cells (0.2 mM substrate, 5 min, pH 6.5) (YjdL Tyr25Phe (E. coli)) [mM] | IC50 of inhibition of β-Ala-Lys(AMCA) uptake into E. coli cells (0.5 mM substrate, 15 min, pH 6.5) (YjdL Tyr58Phe (E. coli)) [mM] | IC50 of inhibition of β-Ala-Lys(AMCA) uptake into E. coli cells (0.2 mM substrate, 5 min, pH 6.5) (YjdL-Ala281Phe (E. coli)) [mM] | IC50 of inhibition of β-Ala-Lys(AMCA) uptake into E. coli cells (0.2 mM substrate, 5 min, pH 6.5) (YjdL Tyr21Phe (E. coli)) [mM] | Substance
55 | 34 | – | – | – | – | – | – | – | – | Ala-Ala-Ala (peptide)
< 10 | – | 0.34 | 0.28 | 0.89 | 0.38 | 0.4 | > 50 | 0.26 | 0.45 | Ala-Lys (peptide)
